Experimental data as given in patent publication US20230242675A1 (SHANGHAI EPIMAB BIOTHERAPEUTICS, published 2023).

Key:
[1] = biological target: T1, human PD-L1/His fusion protein (human, UniProt Q9NZQ7 19-239); assay: BLI Octet RED96, antibody on AHC sensor, single conc. PD-L1/His; test group 3
Procedure: (§1) All 15 antibodies in Table 13 were assayed for and ranked by dissociation rate constant (koff). […] Briefly, antibodies were characterized for affinities and binding kinetics by Octet®RED96 biolayer interferometry (Pall ForteBio LLC). Antibodies were captured by Anti-hIgG Fc Capture (AHC) Biosensors (Pall) at a concentration of 100 nM for 30 seconds. Sensors were then dipped into running buffer (1×pH 7.2 PBS, 0.05% Tween 20, 0.1% BSA) for 60 seconds to check the baseline. Binding was measured by dipping sensors into a single concentration of recombinant human PD-L1/His fusion protein (Novoprotein). Dissociation was followed by dipping sensors into running buffer for 1200 seconds. The association and dissociation curves were fitted to a 1:1 Langmuir binding model using ForteBio Data Analysis software (Pall). […] The off-rate ratio serves as a data normalization. Accordingly, in each test group, the off-rate ratios of the humanized antibodies can be compared with that of the chimeric antibody, and the off-rate ratios of each of the humanized antibodies can be compared to one another within all test groups.

[2] = biological target: T1, human PD-L1/His fusion protein; assay: BLI off-rate; test group 2 (reference itself)
Procedure: as §1

[3] = biological target: T1, human PD-L1/His fusion protein; assay: ELISA, coated human PD-L1 protein, anti-human Fc detection
Procedure: (§2) The ability of an antibody to bind human or cynomolgus (cyno) PD-L1 (binding activity) was determined by ELISA. ELISA plates were incubated overnight at 4° C. with 50 μl of the human or cyno PD-L1 protein described above diluted in PBS buffer, pH 7.4, at 1 μg/ml. Plates were washed four times in washing buffer (PBS containing 0.05% Tween 20) and blocked for 1 hour at 37° C. with 200 μl per well of blocking buffer (1% BSA in PBS containing 0.05% Tween 20). After blocking buffer was removed, diluted purified antibodies (200 nM and 1:5 serial dilutions to provide 7 concentrations of each antibody) were added to the wells at 100 μl per well and incubated at 37° C. for 1 hour. The wells were washed four times with washing buffer, and anti-human IgG (Fc-specific) HRP-conjugated antibody (Sigma), diluted 1:10,000, was added to the wells at 100 μl per well. The plates were incubated for 1 hour at 37° C. and washed four times in washing buffer. 100 μl of tetramethylbenzidine (TMB) chromogenic solution were added per well. Following color development, the reaction was stopped with 1 N HCl, and absorbance at 450 nm was measured on a VARIOSKAN™ LUX multimode microplate reader (ThermoFisher Scientific, Vataa, Finland). The data were processed by GraphPad software, and EC50 values were calculated. The EC50 for binding activity according to this ELSA is the concentration at which an antibody induces a response halfway between the baseline and maximum and indicates the binding ability of the antibody.

[4] = biological target: T2, cynomolgus (cyno) PD-L1/His fusion protein (cynomolgus, UniProt G7PSE7 19-239); assay: ELISA, coated cyno PD-L1 protein
T2 construct: also called cynomolgus PD-L1; not shown: His tag
Procedure: as §2

[5] = biological target: T1, human PD-L1/His fusion protein; assay: BLI off-rate; test group 3 (reference itself)
Procedure: as §1

[6] = biological target: T3, human PD-L1 on the cell surface (CHO-K1 cells stably expressing human PD-L1) (human, UniProt Q9NZQ7 19-290); assay: FACS on CHO-K1/hPD-L1 cells
T3 construct: whole, on cells; Also used here for PD-L1 on the monocyte-derived dendritic cells of the MLR assay (functional rows); also called CHO-K1/PD-L1; CHOK1-PD-L1
Procedure: The ability of the purified antibodies to bind to cell membrane human PD-L1 was determined by FACS analysis. CHO-K1 cells stably expressing human PD-L1 (CHO-K1/hPD-L1 cells) were resuspended in PBS containing 2% FBS (FACS buffer) and seeded at 1×10⁵ cells/well into 96-well round-bottomed plates (Corning; Cat. No. 3799). […] The assay plate was then read on a flow cytometer. The data were processed by GraphPad software, and EC50 values were calculated. The EC50 for binding activity according to this FACS analysis is the concentration at which of an antibody induces a response halfway between the baseline and maximum and reflects the binding ability of the antibody.

[7] = biological target: human PD-L1/Fc Fusion Protein (human); assay: RBA ELISA: coated PD-L1/Fc, competitor biotinylated human PD-1
Procedure: ELISA plates were coated with 100 μl of 1 μg/ml of human PD-L1/Fc in PBS and incubated overnight at 4° C. Plates were washed four times in washing buffer (PBS containing 0.05% Tween 20) and blocked for 1 hour at 37° C. with 200 μl per well of blocking buffer (1% BSA in PBS containing 0.05% Tween 20). […] A human IgG was included as negative control. The signal was developed by adding streptavidin-HRP (Cat. No. S2468, Sigma) (100 μl/well at 1:5000 dilution) and incubating for 40 minutes at 37° C., followed by washing four times in washing buffer. Then, 100 μl of TMB solution were added per well. Following color development, the reaction was stopped with 1 N HCl, and absorbance at 450 nm was measured. The data were processed by GraphPad software, and IC50 values were calculated. […] The signal reduction induced by antibody samples was normalized to inhibition percentage, where the negative control was 0% inhibition, and the absolute value of signal reduction of each antibody divided by the signal of the negative control equals the percent inhibition by the antibody.

[8] = biological target: T1, human PD-L1/His fusion protein; assay: BLI Octet RED96, antibody on AHC sensor, single conc. PD-L1/His; test group 2
Procedure: as §1

[9] = biological target: T2, cynomolgus (cyno) PD-L1/His fusion …; assay: BLI Octet RED96, cyno PD-L1; cyno PD-L1, not human
[10] = biological target: T1, human PD-L1/His fusion protein; assay: BLI off-rate; test group 1 (reference itself)
Procedure: as §1

[11] = biological target: T1, human PD-L1/His fusion protein; assay: BLI Octet RED96, antibody on AHC sensor, PD-L1/His in solution
Procedure: Binding of antibodies to PD-L1 was also assessed using biolayer interferometry (BLI) using an Octet® RED96 sensor device (Pall ForteBio LLC). Antibodies were captured by anti-hIgG Fc capture (AHC) Biosensors (Pall) at a concentration of 100 nM for 30 seconds. Sensors were then dipped into running buffer (1×pH7.2 PBS, 0.05% Tween 20, 0.1% BSA) for 60 seconds to check the baseline. Binding was measured by dipping sensors into a series of diluted concentrations of recombinant human PD-L1/His fusion protein. Dissociation was followed by dipping sensors into running buffer for 1200 seconds. The association and dissociation curves were fitted to a 1:1 Langmuir binding model using ForteBio Data Analysis software (Pall). The equilibrium dissociation constant KD (molarity) of the reaction between antibodies and related target proteins was then calculated from the kinetic rate constants using the formula KD=koff/kon.

[12] = biological target: T1, human PD-L1/His fusion protein; assay: BLI Octet RED96, antibody on AHC sensor, single conc. PD-L1/His; test group 1
Procedure: as §1

T1 sequence (Q9NZQ7 19-239 limits assumed): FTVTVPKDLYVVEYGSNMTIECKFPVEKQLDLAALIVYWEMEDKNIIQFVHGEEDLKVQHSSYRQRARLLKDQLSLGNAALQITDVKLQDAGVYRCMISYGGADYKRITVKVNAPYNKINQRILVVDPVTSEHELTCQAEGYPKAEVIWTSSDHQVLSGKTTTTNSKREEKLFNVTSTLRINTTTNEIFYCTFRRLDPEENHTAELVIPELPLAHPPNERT
T2 sequence (G7PSE7 entry or part of it): as the sequence (Q9NZQ7 19-239 limits assumed) above, with A33T, A34S, S62N, R68Q, Q82R, F173L, T185A, T192I, H215L counted along it
Chain of human PD-L1/Fc Fusion Protein (human) (chain, as listed by the source limits assumed): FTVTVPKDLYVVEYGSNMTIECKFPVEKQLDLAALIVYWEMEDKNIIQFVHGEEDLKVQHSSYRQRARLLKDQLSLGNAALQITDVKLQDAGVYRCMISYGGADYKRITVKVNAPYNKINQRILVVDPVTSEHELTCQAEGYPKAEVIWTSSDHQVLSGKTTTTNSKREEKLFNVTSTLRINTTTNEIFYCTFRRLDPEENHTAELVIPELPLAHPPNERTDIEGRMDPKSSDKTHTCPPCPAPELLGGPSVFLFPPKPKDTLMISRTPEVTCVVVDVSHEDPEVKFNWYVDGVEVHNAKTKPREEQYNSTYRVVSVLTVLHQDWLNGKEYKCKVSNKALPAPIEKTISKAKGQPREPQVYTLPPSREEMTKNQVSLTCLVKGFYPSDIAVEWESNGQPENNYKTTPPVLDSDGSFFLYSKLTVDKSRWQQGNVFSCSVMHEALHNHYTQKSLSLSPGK
T3 sequence (Q9NZQ7 19-290): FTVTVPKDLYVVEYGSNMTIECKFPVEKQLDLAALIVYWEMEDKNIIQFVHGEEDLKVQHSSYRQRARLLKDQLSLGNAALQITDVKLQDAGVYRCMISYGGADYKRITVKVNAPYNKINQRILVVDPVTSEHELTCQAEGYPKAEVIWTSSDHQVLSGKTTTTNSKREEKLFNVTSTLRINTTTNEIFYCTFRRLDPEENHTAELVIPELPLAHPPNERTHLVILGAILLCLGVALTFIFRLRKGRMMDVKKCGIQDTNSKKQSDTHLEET

koff [1]: 0.00103 s⁻¹
Off-Rate Ratio to that of EM0005-86c [2]: 100%
EC50 [3]: 0.14 nM
EC50 [4]: 0.1 nM
Off-Rate Ratio to that of EM0005-86c [5]: 100%
EC50 [6]: 0.22 nM
IC50 [7]: 1.09 nM
Inhibition (percent) [7]: 97.4%
koff [8]: 0.00179 s⁻¹
Kd [9]: 0.373 nM
Off-Rate Ratio to that of EM0005-86c [10]: 100%
Kd [11]: 0.261 nM
koff [12]: 0.00123 s⁻¹
B1: EM0005-mAb86c (antibody, human IgG1, kappa, V domains shown)
VH: QVQLQQSGAELVRPGSSVKMSCKTSGYTFTTYGINWVKQRPGQGLEWIGYIYIGNGYTEYNEKFKGKATLTSDPSSRTAYMQLSSLTSEDSAIYFCARDLMVIAPKTMDYWGQGTSVTVSS
VL: DIQMNQSHKFMSTSVGDRVSITCKASQDVGTAVAWYQQKPGQSPKLLIYWASTRHTGVPDRFTGGGSGTDFTLTISNVQSEDLADYFCQQYSSYPYTFGGGTKLEMKR
notes: Chimeric full-length IgG1; also called EM0005-86c; EM0005-86C
